This passage reports Km, kcat and kcat/Km results from patent US10829756B2, “Discovery of enzymes from the alpha-keto acid decarboxylase family” (priority 2015, dated 2020).

Assay in all cases: Steady-state kinetics of 2-ketoacid decarboxylase (ADH/NADH coupled)
Conditions in all cases: other: pH 7.5, 21° C.

Substrate in series [1]: CCCCCCC(=O)C(=O)O
In kind it is biochemical, Lactococcus lactis. The procedure: (§1) Since KIVD can already efficiently utilize C8 as a substrate, enzyme specificity is of primary importance. Therefore each mutant was screened against a panel of 2-ketoacid substrates in order to assess the specificity and activity of each mutant. (FIG. 11) This assay was performed using a high-throughput pH-dependent colorimetric assay of enzyme activity in crude cell extracts. Mutations that increased specificity for C8 were then combined to produce combinatorial mutants and screened for specificity with the colorimetric assays. […] The engineered enzyme KIVD_VLV has a 600-fold improvement in specificity between C8 and C5, in terms of catalytic efficiency, relative to the native KIVD.
(§2) For the native KIVD and KIVD_VLV mutant, 2 ml overnight cultures of XL1B cells were transformed with pQE9 containing N-terminal his-tagged KIVD enzymes and grown in Terrific Broth (BP biomedical, Cat#3046-042) with 50 μg/mL of carbenicillin. (Fisher scientific, Cat# BP2648-5) For the GEOs, 2 ml overnight cultures of BLR cells were transformed with pet29b+ plasmid containing N-terminal his-tagged GEOs, and grown in Terrific Broth with 50 μg/mL of kanamycin. (Fisher scientific, Cat# BP906-5) These cultures were diluted 1:1000 in 500 mL of Terrific Broth with 1 mM MgSO4, 1% glucose, and 50ug/mL of corresponding antibiotics, then grown at 37° C. for 24 hours. Cultures were pelleted down at 4700 rpm for 10 mins and resuspended in auto-induction media (LB broth, 1 mM MgSO4, 0.1 mM TPP, 1×NPS, and 1×5052) for induction at 18° C. for 34 hours. At the end of induction, cells were centrifuged (4700 rpm, 4° C., 20 minutes), supernatant was removed, and cells were resuspended in 40 mL lysis buffer (100 mM Hepes pH 7.5, 100 mM NaCl, 10% glycerol, 0.1 mM TPP, 1 mM MgSO4, 10 mM Imidazole, 1 mM TCEP) and 1 mM PMSF) and sonicated for 2 minutes. Lysed cells were centrifuged at 4700 rpm at 4° C. for 60 mins to remove cell debris. […] Protein concentrations were determined using a Synergy H1 spectrophotometer (Biotek) by measuring absorbance at 280 nm using their calculated extinction coefficients with ExPASy ProtParam Tool.^33 All other buffers and salts were purchased from Fisher Scientific unless otherwise specified.
(§3) The kcat and KM values of selective KIVD mutants were measured for the substrates: C3, C5, isoC5, and C8. […] Activity was measured at 0.005 mM to 10 mM substrates. […] Absorbance readings were taken every 1-minute at OD340 at 21° C. for 60 minutes using the Synergy H1. Kinetic parameters (kcat and KM) were determined by fitting initial velocity versus substrate concentration data to the Michaelis-Menten equation.

Substrate in series [2]: CCCC(=O)C(=O)O
In kind it is biochemical, Lactococcus lactis. The procedure: as §1, §2, §3

Substrate in series [3]: CC(=O)C(=O)O
In kind it is biochemical. An excerpt:
(§4) FIG. 17: Depicts protein sequences of various 2-ketoacid decarboxylases (SEQ ID NOS:20-34). Protein Sequence 3FZN is SEQ ID NO: 20. Protein sequence 2VBI is SEQ ID NO: 21. Protein sequence 1ZPD is SEQ ID NO: 22. Protein sequence ZP_08570611 is SEQ ID NO: 23. Protein sequence YP_831380 is SEQ ID NO: 24. Protein sequence ZP_06547677 is SEQ ID NO: 25. Protein sequence 1OVM_P23234 is SEQ ID NO: 26. Protein sequence ZP_06418208 is SEQ ID NO: 27. Protein sequence ZP_07290467 is SEQ ID NO: 28. Protein sequence 2VBG is SEQ ID NO: 29. Protein sequence CAK95977 is SEQ ID NO: 30. Protein sequence ZP_07282849 is SEQ ID NO: 31. Protein sequence ZP_06846103 is SEQ ID NO: 32. Protein sequence ZP_04996569 is SEQ ID NO: 33. Protein sequence YP_381143 is SEQ ID NO: 34.
(§5) To evaluate if the integrative genomic mining approach enriches the mining for C8 activity, an additional set of previously characterized ketoacid decarboxylases diverse in sequence were experimentally characterized in an equivalent manner. […] The median C8 activity from the GEOs selected using the integrative genomic mining approach is 75-fold higher than the naively picked decarboxylases (Table 1, FIG. 4). This indicates the integrative genomic mining approach is effective in identifying functional enzymes that perform the desired reaction on C8.
(§6) For the native KIVD and KIVD_VLV mutant, 2 ml overnight cultures of XL1B cells were transformed with pQE9 containing N-terminal his-tagged KIVD enzymes and grown in Terrific Broth (BP biomedical, Cat#3046-042) with 50 μg/mL of carbenicillin. (Fisher scientific, Cat# BP2648-5) For the GEOs, 2 ml overnight cultures of BLR cells were transformed with pet29b+ plasmid containing N-terminal his-tagged GEOs, and grown in Terrific Broth with 50 μg/mL of kanamycin. (Fisher scientific, Cat# BP906-5) These cultures were diluted 1:1000 in 500 mL of Terrific Broth with 1 mM MgSO4, 1% glucose, and 50ug/mL of corresponding antibiotics, then grown at 37° C. for 24 hours. Cultures were pelleted down at 4700 rpm for 10 mins and resuspended in auto-induction media (LB broth, 1 mM MgSO4, 0.1 mM TPP, 1×NPS, and 1×5052) for induction at 18° C. for 34 hours. At the end of induction, cells were centrifuged (4700 rpm, 4° C., 20 minutes), supernatant was removed, and cells were resuspended in 40 mL lysis buffer (100 mM Hepes pH 7.5, 100 mM NaCl, 10% glycerol, 0.1 mM TPP, 1 mM MgSO4, 10 mM Imidazole, 1 mM TCEP) and 1 mM PMSF) and sonicated for 2 minutes. Lysed cells were centrifuged at 4700 rpm at 4° C. for 60 mins to remove cell debris. Supernatant was loaded on gravity flow column with 700 μl of cobalt slurry (Fisher scientific, CAT# PI-90091) washed with 10 ml of wash buffer (100 mM Hepes pH 7.5, 100 mM NaCl, 10% glycerol, 0.1 mM TPP, 1 mM MgSO4, 10 mM Imidazole, and 1 mM TCEP). Cobalt bead bed was washed with 15 ml of wash buffer 5 times and proteins were eluted with 1000 μl of elution buffer (100 mM Hepes pH 7.5, 100 mM NaCl, 10% glycerol, 0.1 mM TPP, 1 mM MgSO4, 200 mM Imidazole, and 1 mM TCEP). Protein samples were immediately buffer exchanged with spin concentrators (Satorius, CAT# VS0112) into storage buffer (100 mM Hepes pH 7.5, 100 mM NaCl, 10% glycerol, 0.1 mM TPP, 1 mM MgSO4, and 1 mM TCEP) and stored at 4° C. until kinetics characterization. Protein concentrations were determined using a Synergy H1 spectrophotometer (Biotek) by measuring absorbance at 280 nm using their calculated extinction coefficients with ExPASy ProtParam Tool.^33 All other buffers and salts were purchased from Fisher Scientific unless otherwise specified.
(§7) The kcat and KM values of selective KIVD mutants were measured for the substrates: C3, C5, isoC5, and C8. All substrates were dissolved in MilliQ H2O and pH was adjusted to 7.5 as necessary. Activity was measured at 0.005 mM to 10 mM substrates. The assay was performed in a 96-well half-area plate. […]

Substrate in series [4]: CCCCCCC(=O)C(=O)O
It is filed as biochemical.
Source text: as §4, §5, §6, §7

Substrate in series [5]: CCCC(=O)C(=O)O
In kind it is biochemical.
Source text: as §4, §5, §6, §7

Substrate in series [6]: CC(C)C(=O)C(=O)O
It is filed as biochemical.
Source text: as §5
For the native KIVD and KIVD_VLV mutant, 2 ml overnight cultures of XL1B cells were transformed with pQE9 containing N-terminal his-tagged KIVD enzymes and grown in Terrific Broth (BP biomedical, Cat#3046-042) with 50 μg/mL of carbenicillin. […] Protein concentrations were determined using a Synergy H1 spectrophotometer (Biotek) by measuring absorbance at 280 nm using their calculated extinction coefficients with ExPASy ProtParam Tool.^33 All other buffers and salts were purchased from Fisher Scientific unless otherwise specified.
The kcat and KM values of selective KIVD mutants were measured for the substrates: C3, C5, isoC5, and C8. […] Activity was measured at 0.005 mM to 10 mM substrates. […] Absorbance readings were taken every 1-minute at OD340 at 21° C. for 60 minutes using the Synergy H1. […]

B1: KIVD variant G402V/M538L/F542V (KIVD_VLV), SEQ ID NO:3 (Lactococcus lactis subsp. lactis; F542V/G402V/M538L) (protein)
chain: MYTVGDYLLDRLHELGIEEIFGVPGDYNLQFLDQIISRKDMKWVGNANELNASYMADGYARTKKAAAFLTTFGVGELSAVNGLAGSYAENLPVVEIVGSPTSKVQNEGKFVHHTLADGDFKHFMKMHEPVTAARTLLTAENATVEIDRVLSALLKERKPVYINLPVDVAAAKAEKPSLPLKKENSTSNTSDQEILNKIQESLKNAKKPIVITGHEIISFGLEKTVSQFISKTKLPITTLNFGKSSVDEALPSFLGIYNGKLSEPNLKEFVESADFILMLGVKLTDSSTGAFTHHLNENKMISLNIDEGKIFNESIQNFDFESLISSLLDLSEIEYKGKYIDKKQEDFVPSNALLSQDRLWQAVENLTQSNETIVAEQGTSFFGASSIFLKPKSHFIGQPLWVSIGYTFPAALGSQIADKESRHLLFIGDGSLQLTVQELGLAIREKINPICFIINNDGYTVEREIHGPNQSYNDIPMWNYSKLPESFGATEERVVSKIVRTENEFVSVMKEAQADPNRMYWIELILAKEDAPKVLKKLGKLVAEQNKS
Usually Km stands for the substrate concentration at which the rate is half of its maximum. Broadly, the kcat is the maximal rate divided by the concentration of active sites. Consider B1, for which, in series [1], the Km is listed as 0.18 ± 0.05 mM and the kcat turned out to be 0.5 ± 0.03 s⁻¹. For the same protein, in series [2], the Km is 10.0 ± 1.0 mM and the kcat was determined as 0.013 ± 0.001 s⁻¹.

B2: 1ZPD, ketoacid decarboxylase, SEQ ID NO: 22 (Zymomonas mobilis subsp. mobilis ZM4 = ATCC 31821) (protein)
chain: MSYTVGTYLAERLVQIGLKHHFAVAGDYNLVLLDNLLLNKNMEQVYCCNELNCGFSAEGYARAKGAAAAVVTYSVGALSAFDAIGGAYAENLPVILISGAPNNNDHAAGHVLHHALGKTDYHYQLEMAKNITAAAEAIYTPEEAPAKIDHVIKTALREKKPVYLEIACNIASMPCAAPGPASALFNDEASDEASLNAAVDETLKFIANRDKVAVLVGSKLRAAGAEEAAVKFTDALGGAVATMAAAKSFFPEENALYIGTSWGEVSYPGVEKTMKEADAVIALAPVFNDYSTTGWTDIPDPKKLVLAEPRSVVVNGIRFPSVHLKDYLTRLAQKVSKKTGSLDFFKSLNAGELKKAAPADPSAPLVNAEIARQVEALLTPNTTVIAETGDSWFNAQRMKLPNGARVEYEMQWGHIGWSVPAAFGYAVGAPERRNILMVGDGSFQLTAQEVAQMVRLKLPVIIFLINNYGYTIEVMIHDGPYNNIKNWDYAGLMEVFNGNGGYDSGAAKGLKAKTGGELAEAIKVALANTDGPTLIECFIGREDCTEELVKWGKRVAAANSRKPVNKVVGSTENLYFQSGALE
What is called kcat/Km is the second-order rate constant that governs catalysis at low substrate concentration. B2: in series [3], the Km was found to be 5.7 ± 0.3 mM, the kcat was 46.7 ± 1.4 s⁻¹ and the kcat/Km amounted to 8200 ± 545 M⁻¹ s⁻¹. In series [4], the Km is recorded as 1.2 ± 0.1 mM, the kcat stood at 0.021 ± 0.001 s⁻¹ and the kcat/Km turned out to be 19 ± 2 M⁻¹ s⁻¹. For the same protein, in series [5], the Km was determined as 7.1 ± 0.3 mM, the kcat came to 0.95 ± 0.02 s⁻¹ and the kcat/Km came to 140 ± 5.6 M⁻¹ s⁻¹.

B3: 1OZF, ketoacid decarboxylase (Klebsiella pneumoniae) (protein)
chain: MDKQYPVRQWAHGADLVVSQLEAQGVRQVFGIPGAKIDKVFDSLLDSSIRIIPVRHEANAAFMAAAVGRITGKAGVALVTSGPGCSNLITGMATANSEGDPVVALGGAVKRADKAKQVHQSMDTVAMFSPVTKYAIEVTAPDALAEVVSNAFRAAEQGRPGSAFVSLPQDVVDGPVSGKVLPASGAPQMGAAPDDAIDQVAKLIAQAKNPIFLLGLMASQPENSKALRRLLETSHIPVTSTYQAAGAVNQDNFSRFAGRVGLFNNQAGDRLLQLADLVICIGYSPVEYEPAMWNSGNATLVHIDVLPAYEERNYTPDVELVGDIAGTLNKLAQNIDHRLVLSPQAAEILRDRQHQRELLDRRGAQLNQFALHPLRIVRAMQDIVNSDVTLTVDMGSFHIWIARYLYTFRARQVMISNGQQTMGVALPWAIGAWLVNPERKVVSVSGDGGFLQSSMELETAVRLKANVLHLIWVDNGYNMVAIQEEKKYQRLSGVEFGPMDFKAYAESFGAKGFAVESAEALEPTLRAAMDVDGPAVVAIPVDYRDNPLLMGQLHLSQIL
In the case of B3, in series [6], the Km worked out at 1.8 ± 0.1 mM and the kcat was 0.03 ± 0.001 s⁻¹.
